Measurements from patent US20120201781A1 (AbbVie / Abbott, published 2012).
Read-outs that look alike come from different tables or passages of the source.

Assays:
recombinant human IL-1α [1] = target: T1, recombinant human IL-1α (human, UniProt P01583 113-271); assay: SPR (Biacore)
T1 construct: Purified recombinant protein bought from R&D Systems; also called hIL-1α; rhIL-1α
T1 sequence: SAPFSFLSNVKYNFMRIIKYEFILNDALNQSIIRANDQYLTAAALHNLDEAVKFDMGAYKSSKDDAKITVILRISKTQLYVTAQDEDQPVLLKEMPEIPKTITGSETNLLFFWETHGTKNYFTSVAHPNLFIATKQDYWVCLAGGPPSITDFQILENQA

recombinant human IL-1α [2] = target: T1, recombinant human IL-1α; assay: SPR (Biacore), mAb captured via goat anti-mouse IgG
recombinant human IL-1α [3] = target: T1, recombinant human IL-1α; assay: cell-based or functional assay
recombinant human IL-1α [4] = target: T1, recombinant human IL-1α; assay: cell-based or functional assay; remark: listed apart in the source
recombinant human IL-1β [5] = target: T2, recombinant human IL-1β (human, UniProt P01584 117-269); assay: SPR (Biacore)
T2 construct: Recombinant protein; also called hIL-1β; rhIL-1β

recombinant human IL-1β [6] = target: T2, recombinant human IL-1β; assay: cell-based or functional assay
recombinant human IL-1β [7] = target: T2, recombinant human IL-1β; assay: SPR (Biacore), mAb captured via goat anti-mouse IgG
recombinant human IL-1β [8] = target: T2, recombinant human IL-1β; assay: cell-based or functional assay; remark: listed apart in the source
recombinant human IL-1β [9] = target: T2, recombinant human IL-1β; assay: SPR (Biacore 3000), saturating binding
Description: (§1) The association and dissociation rate constants, kon (M-1s-1) and koff (s-1) were determined under a continuous flow rate of 25 ml/minute. […] The equilibrium dissociation constant (M) of the reaction between DVD-Ig molecule and rhIL1α/β was then calculated from the kinetic rate constants by the following formula: KD=koff/kon. Aliquots of rhIL1α/β samples were also simultaneously injected over a blank reference and reaction CM surface to record and subtract any nonspecific binding background to eliminate the majority of the refractive index change and injection noise. Surfaces were regenerated with two subsequent […] injections of 10 mM Glycine (pH 1.5) at a flow rate of […]. The anti-Fc antibody immobilized surfaces were completely regenerated and retained their full capture capacity over twelve cycles. The apparent stoichiometry of the captured DVD-Ig-rhIL1α/β complex was calculated under saturating binding conditions (steady-state equilibrium) using the following formula: […]
(§2) The affinity of the two DVD-Ig binding proteins to hIL-1 as compared to the affinity of chimeric antibodies to hIL-1 was similar as indicated by the evaluation of the stoichiometry to IL-1. Both chimeric antibodies, being bivalent monospecific, bound to IL-1α and IL-1β on Biacore with a stoichiometry of 1.6 and 1.7, respectively. This is common for an IgG due to inter-molecular interference when antibodies are immobilized densely on the Biacore sense chip resulting in stoichiometry being in the range from 1.5 to 2.0.

recombinant human IL-1β [10] = target: T2, recombinant human IL-1β; assay: cell-based or functional assay; remark: listed apart in the source
recombinant human IL-1β [11] = target: T2, recombinant human IL-1β; assay: SPR (Biacore 3000), binder captured via goat anti-human IgG Fc
Description: (§3) Approximately, 5000 RU of goat anti-human IgG Fcγ fragment specific polyclonal antibody (Pierce Biotechnology Inc, Rockford, Ill.) diluted in 10 mM sodium acetate (pH 4.5) was directly immobilized across a CM5 research grade biosensor chip using a standard amine coupling kit according to manufacturer's instructions and procedures at […]. Unreacted moieties on the biosensor surface were blocked with ethanolamine. Modified carboxymethyl dextran surface in flowcell 2 and 4 was used as a reaction surface. Unmodified carboxymethyl dextran without goat anti-human IgG in flow cell 1 and 3 was used as the reference surface. For kinetic analysis, rate equations derived from the 1:1 Langmuir binding model were fitted simultaneously to association and dissociation phases of all ten injections (using global fit analysis) using the Bioevaluation 4.0.1 software. Purified DVD-Ig samples were diluted in HEPES-buffered saline for capture across goat anti-human IgG Fc specific reaction surfaces and injected over reaction matrices at a flow rate of […]. The association and dissociation rate constants, kon (M-1s-1) and koff (s-1) were determined under a continuous flow rate of 25 ml/minute. […] The equilibrium dissociation constant (M) of the reaction between DVD-Ig molecule and rhIL1α/β was then calculated from the kinetic rate constants by the following formula: KD=koff/kon. Aliquots of rhIL1α/β samples were also simultaneously injected over a blank reference and reaction CM surface to record and subtract any nonspecific binding background to eliminate the majority of the refractive index change and injection noise. Surfaces were regenerated with two subsequent […] injections of 10 mM Glycine (pH 1.5) at a flow rate of […]. The anti-Fc antibody immobilized surfaces were completely regenerated and retained their full capture capacity over twelve cycles. The apparent stoichiometry of the captured DVD-Ig-rhIL1α/β complex was calculated under saturating binding conditions (steady-state equilibrium) using the following formula: […]

recombinant human IL-1α [12] = target: T1, recombinant human IL-1α; assay: SPR (Biacore 3000), saturating binding
Description: as §1, §2

recombinant human IL-1α [13] = target: T1, recombinant human IL-1α; assay: cell-based or functional assay; remark: listed apart in the source
recombinant human IL-1α [14] = target: T1, recombinant human IL-1α; assay: SPR (Biacore 3000), binder captured via goat anti-human IgG Fc
Description: as §3

B1: murine monoclonal antibody 6H3.1A4.3E11 (antibody, V domains shown)
VH: QVQLQQPGAELVRPGASVKLSCKASGYTFTTYWMNWVKQRPEQGLEWIGRIDPYDSETLYSQKFKDTAILTVDKSSSTAYMQLSSLTSEDSAVYYCARYGFDYWGQGTTLTVSS
VL: QIVLTQSPALMSASPGEKVTMTCSASSSVNYMYWYQQKPRSSPKPWIYLTSNLASGVPARFSGSGSGTSYSLTISSMEAEDAATYYCQQWNSNPYTFGGGTKLEMKR
notes: Murine hybridoma mAb, anti-hIL-1α
- Kd (recombinant human IL-1α [1]): 0.354 nM
- Kd (recombinant human IL-1α [2]): 0.354 nM
- IC50 (M), MRC-5 bioassay (recombinant human IL-1α [3]): 2.4e-10 M
- IC50 (M), MRC-5 bioassay (inhibition of IL-8 production) (recombinant human IL-1α [4]): 2.4e-10 M

B2: hIL-1α/β DVD5b-Ig (bispecific antibody, human IgG1, kappa)
heavy: not shown
light: QIVLTQSPAIMSASPGEKVTITCSASSSVSYMHWFQQKPGASPKLWIYSTSNLASGVPARFSGSGSGTSYSLTVSRMEAEDAATYYCQQRSTYPYTFGGGTKLEIKRTVAAPQIVLTQSPALMSASPGEKVTMTCSASSSVNYMYWYQQKPRSSPKPWIYLTSNLASGVPARFSGSGSGTSYSLTISSMEAEDAATYYCQQWNSNPYTFGGGTKLEMKRTVAAPSVFIFPPSDEQLKSGTASVVCLLNNFYPREAKVQWKVDNALQSGNSQESVTEQDSKDSTYSLSSTLTLSKADYEKHKVYACEVTHQGLSSPVTKSFNRGEC
notes: 6B12.4F6 (outer) - short linker - 6H3.1A4.3E11 (inner), b-a-C orientation
- Kd (recombinant human IL-1α [1]): 13.2 nM
- Kd (recombinant human IL-1β [5]): 0.671 nM
- Potency (IC50) M, MRC-5 bioassay (recombinant human IL-1α [3]): 3.3 nM
- Potency (IC50) M, MRC-5 bioassay (recombinant human IL-1β [6]): 250 pM

B3: murine monoclonal antibody 6B12.4F6 (antibody, V domains shown)
VH: EVQLQQSGPELVKTGTSVKISCKASGYSFTGYYMHWVRQSHGKSLEWIGYISCYNGFTSYNPKFKGKATFTVDTSSSTAYIQFSRLTSEDSAVYYCARSDYYGTNDYWGQGTTLTVSS
VL: QIVLTQSPAIMSASPGEKVTITCSASSSVSYMHWFQQKPGASPKLWIYSTSNLASGVPARFSGSGSGTSYSLTVSRMEAEDAATYYCQQRSTYPYTFGGGTKLEIKR
notes: Murine hybridoma mAb, anti-hIL-1β
- Kd (recombinant human IL-1β [5]): 0.554 nM
- Kd (recombinant human IL-1β [7]): 0.554 nM
- IC50 (M), MRC-5 bioassay (recombinant human IL-1β [6]): 4e-10 M
- IC50 (M), MRC-5 bioassay (inhibition of IL-8 production) (recombinant human IL-1β [8]): 3.2e-10 M

B4: murine monoclonal antibody 18F4.2C8 (antibody, V domains shown)
VH: EVQLQQSGAELVKPGASVKLSCTASGLNIKDTYMHWLKQRPEQGLEWIGRIDPANGNAKYDPRFLGKATITADTSSNTAYLQLSSLTSEDTAVYYCARGDGNFHFDYWGQGTTLTVSS
VL: DIVMTQSQRFMSTSVGDRVSVTCKASQNVGTNIAWYQQKPGQSPRALIYSASYRYSGVPDRFTGSGSGTDFTLTISNVQSVDLAEYFCQQYTRYPLTFGGGTKLEIKR
notes: as for B1
- Kd (recombinant human IL-1α [1]): 0.595 nM
- Kd (recombinant human IL-1α [2]): 0.578 nM
- IC50 (M), MRC-5 bioassay (recombinant human IL-1α [3]): 3.3e-10 M
- IC50 (M), MRC-5 bioassay (inhibition of IL-8 production) (recombinant human IL-1α [4]): 8.9e-11 M

B5: murine monoclonal antibody 1B12.4H4 (antibody, V domains shown)
VH: QVHLKESGPGLVAPSQSLSITCTVSGFSLTDYGVSWIRQPPGKGLEWLGLIWGGGDTYYNSPLKSRLSIRKDNSKSQVFLKMNSLQTDDTAVYYCAKQRTLWGYDLYGMDYWGQGTSVTVSS
VL: ETTVTQSPASLSMAIGEKVTIRCITSTDIDVDMNWYQQKPGEPPKLLISQGNTLRPGVPSRFSSSGSGTDFVFIIENMLSEDVADYYCLQSDNLPLTFGAGTKLELKR
notes: as for B3
- Kd (recombinant human IL-1β [5]): 0.261 nM
- Kd (recombinant human IL-1β [7]): 0.213 nM
- IC50 (M), MRC-5 bioassay (recombinant human IL-1β [6]): 6e-10 M
- IC50 (M), MRC-5 bioassay (inhibition of IL-8 production) (recombinant human IL-1β [8]): 5.3e-10 M

B6: hIL-1α/β DVD6b-Ig (bispecific antibody, human IgG1, kappa)
heavy: not shown
light: QIVLTQSPAIMSASPGEKVTITCSASSSVSYMHWFQQKPGASPKLWIYSTSNLASGVPARFSGSGSGTSYSLTVSRMEAEDAATYYCQQRSTYPYTFGGGTKLEIKRTVAAPSVFIFPPQIVLTQSPALMSASPGEKVTMTCSASSSVNYMYWYQQKPRSSPKPWIYLTSNLASGVPARFSGSGSGTSYSLTISSMEAEDAATYYCQQWNSNPYTFGGGTKLEMKRRTVAAPSVFIFPPSDEQLKSGTASVVCLLNNFYPREAKVQWKVDNALQSGNSQESVTEQDSKDSTYSLSSTLTLSKADYEKHKVYACEVTHQGLSSPVTKSFNRGEC
notes: 6B12.4F6 (outer) - long linker - 6H3.1A4.3E11 (inner), b-a-C orientation
- Kd (recombinant human IL-1α [1]): 0.82 nM
- Kd (recombinant human IL-1β [5]): 0.697 nM
- Potency (IC50) M, MRC-5 bioassay (recombinant human IL-1α [3]): 1 nM
- Potency (IC50) M, MRC-5 bioassay (recombinant human IL-1β [6]): 750 pM

B7: hIL-1α/β DVD6a-Ig (bispecific antibody, human IgG1, kappa)
heavy: not shown
light: QIVLTQSPALMSASPGEKVTMTCSASSSVNYMYWYQQKPRSSPKPWIYLTSNLASGVPARFSGSGSGTSYSLTISSMEAEDAATYYCQQWNSNPYTFGGGTKLEMKRTVAAPSVFIFPPQIVLTQSPAIMSASPGEKVTITCSASSSVSYMHWFQQKPGASPKLWIYSTSNLASGVPARFSGSGSGTSYSLTVSRMEAEDAATYYCQQRSTYPYTFGGGTKLEIKRRTVAAPSVFIFPPSDEQLKSGTASVVCLLNNFYPREAKVQWKVDNALQSGNSQESVTEQDSKDSTYSLSSTLTLSKADYEKHKVYACEVTHQGLSSPVTKSFNRGEC
notes: 6H3.1A4.3E11 (outer) - long linker - 6B12.4F6 (inner), a-b-C orientation
- Kd (recombinant human IL-1α [1]): 1.06 nM
- Kd (recombinant human IL-1β [5]): 2.09 nM
- Potency (IC50) M, MRC-5 bioassay (recombinant human IL-1α [3]): 2.3 nM
- Potency (IC50) M, MRC-5 bioassay (recombinant human IL-1β [6]): 70000 pM

B8: chimeric 13F5.G5 antibody (antibody, V domains shown)
VH: QVQLQQSGAELVRPGSSVKISCKASGYAFSSYWMNWVKQRPGQGLEWIGQIYPGDGDTNYNGKFKGKATLTADKSSSTSYMQLSGLTSEDSAMYFCVRFPTGNDYYAMDYWGQGTSVTVSS
VL: NIVLTQSPASLAVSLGQRATISCRASESVDSYGNSYMHWYQQKPGQPPKLLIYLASNLESGVPARFSGSGSRTDFTLTIDPVEADDAATYYCQQNNEDPFTFGSGTKLEIKR
notes: Murine variable domains on human Cγ1 and human Cκ constant regions (13F5.G5-VH-Cγ1, 13F5.G5-VL-Cκ); also called 13F5.G5-Ch; 13F5.G5 chimeric Ab
- Stoichiometry (recombinant human IL-1β [9]): 1.7
- Potency (IC50) M, MRC-5 bioassay (recombinant human IL-1β [10]): 530 pM
- Kd (recombinant human IL-1β [11]): 0.462 nM
- koff (recombinant human IL-1β [11]): 0.000654 s⁻¹
- kon (recombinant human IL-1β [11]): 1.41e+06 M⁻¹ s⁻¹

B9: chimeric 3D12.E3 antibody (antibody, V domains shown)
VH: QIQLVQSGPELKKPGETVKISCKASGYTFRNYGMNWVKQAPGKDLKRMAWINTYTGESTYADDFKGRFAFSLETSASTAYLQINNLKNEDTATYFCARGIYYYGSSYAMDYWGQGTSVTVSS
VL: NIQMTQTTSSLSASLGDRVTISCRASQDISNCLNWYQQKPDGTVKLLIYYTSRLHSGVPSRFSGSGSGTDYSLTISNLEQEDIATYFCQQGKTLPYAFGGGTKLEINR
notes: Murine variable domains on human Cγ1 and human Cκ constant regions (3D12.E3-VH-hCγ1, 3D12.E3-VL-hCκ); also called 3D12.E3-Ch; 3D12.E3 chimeric Ab
- Stoichiometry (recombinant human IL-1α [12]): 1.6
- Potency (IC50) M, MRC-5 bioassay (recombinant human IL-1α [13]): 700 pM
- Kd (recombinant human IL-1α [14]): 1.34 nM
- koff (recombinant human IL-1α [14]): 0.000552 s⁻¹
- kon (recombinant human IL-1α [14]): 412000 M⁻¹ s⁻¹
